Reference: patent publication US20230279089A1

Columns and labels:
Assay in all cases: cell-based or functional assay
[1] = molecular target: endogenous BMP1 of human primary cardiac fibroblasts (human), P13497
[2] = molecular target: BMP1/TLL activity in human serum
[3] = molecular target: BMP1/TLL activity in mouse plasma
[4] = molecular target: BMP1/TLL activity in rat plasma

Chain of endogenous BMP1 of human primary cardiac fibroblasts (human), P13497 (P13497 121-986): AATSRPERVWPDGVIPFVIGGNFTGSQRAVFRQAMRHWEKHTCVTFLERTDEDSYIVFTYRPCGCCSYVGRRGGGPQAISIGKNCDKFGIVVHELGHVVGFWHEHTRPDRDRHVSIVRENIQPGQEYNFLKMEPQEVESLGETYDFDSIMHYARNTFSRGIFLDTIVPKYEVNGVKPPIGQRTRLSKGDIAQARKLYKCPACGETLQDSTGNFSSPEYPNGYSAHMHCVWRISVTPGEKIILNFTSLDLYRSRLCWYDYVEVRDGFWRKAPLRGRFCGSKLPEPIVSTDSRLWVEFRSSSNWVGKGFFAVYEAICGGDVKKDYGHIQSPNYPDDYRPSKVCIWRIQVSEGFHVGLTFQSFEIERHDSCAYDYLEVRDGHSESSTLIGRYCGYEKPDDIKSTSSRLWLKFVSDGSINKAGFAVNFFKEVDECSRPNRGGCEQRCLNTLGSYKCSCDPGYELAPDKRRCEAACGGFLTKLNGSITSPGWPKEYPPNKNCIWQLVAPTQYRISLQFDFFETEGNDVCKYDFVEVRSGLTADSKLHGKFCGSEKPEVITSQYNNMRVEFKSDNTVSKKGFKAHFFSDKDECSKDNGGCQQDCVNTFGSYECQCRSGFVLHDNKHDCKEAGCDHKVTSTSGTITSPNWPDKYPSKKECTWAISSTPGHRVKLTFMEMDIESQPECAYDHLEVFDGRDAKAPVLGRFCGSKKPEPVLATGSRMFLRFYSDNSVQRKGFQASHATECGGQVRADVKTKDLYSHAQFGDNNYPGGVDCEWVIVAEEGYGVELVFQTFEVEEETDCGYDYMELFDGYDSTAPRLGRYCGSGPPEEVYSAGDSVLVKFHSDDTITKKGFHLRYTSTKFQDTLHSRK

Binder | pIC50, scar-in-a-jar (SIJ) assay [1] | pIC50, FRET enzyme activity, Human serum (n = 1) [2] | pIC50, FRET enzyme activity, Mouse plasma (n = 1) [3] | pIC50, FRET enzyme activity, Rat plasma (n = 2) [4]
13Y039-4B06-4334 human variable region on mouse IgG2a LAGA Fc, mouse cKappa (Compound A) (antibody) heavy: QVQLVQSGAEVKKPGASVKVSCKASGYTFLGYYMSWVRQAPGQGLEWMGWINPLSGETNYAQKFQGRVTMTRDTSISTAYMELSRLRSDDTAVYYCARDTGELDGMNWYFDLWGRGTLVTVSSAKTTAPSVYPLAPVCGDTTGSSVTLGCLVKGYFPEPVTLTWNSGSLSSGVHTFPAVLQSDLYTLSSSVTVTSSTWPSQSITCNVAHPASSTKVDKKIEPRGPTIKPCPPCKCPAPNLAGAPSVFIFPPKIKDVLMISLSPIVTCVVVDVSEDDPDVQISWFVNNVEVHTAQTQTHREDYNSTLRVVSALPIQHQDWMSGKEFKCKVNNKDLPAPIERTISKPKGSVRAPQVYVLPPPEEEMTKKQVTLTCMVTDFMPEDIYVEWTNNGKTELNYKNTEPVLDSDGSYFMYSKLRVEKKNWVERNSYSCSVVHEGLHNHHTTKSFSRTPGK light: EIVLTQSPATLSLSPGERATLSCRASQSVSSYLAWYQQKPGQAPRLLIYDASNRATGIPARFSGSGSGTDFTLTISSLEPEDFAVYYCQQSDSWPPTFGGGTKVEIKRADAAPTVSIFPPSSEQLTSGGASVVCFLNNFYPKDINVKWKIDGSERQNGVLNSWTDQDSKDSTYSMSSTLTLTKDEYERHNSYTCEATHKTSTSPIVKSFNRNEC | 9.8 | 10.1 | 7.5 | 
13Y039-4B06-4334 human variable region on rat IgG2b LAGA Fc and rat Kappa (Compound C) (antibody) heavy: QVQLVQSGAEVKKPGASVKVSCKASGYTFLGYYMSWVRQAPGQGLEWMGWINPLSGETNYAQKFQGRVTMTRDTSISTAYMELSRLRSDDTAVYYCARDTGELDGMNWYFDLWGRGTLVTVSSAQTTAPSVYPLAPGCGDTTSSTVTLGCLVKGYFPEPVTVTWNSGALSSDVHTFPAVLQSGLYTLTSSVTSSTWPSQTVTCNVAHPASSTKVDKKVERRNGGIGHKCPTCPTCHKCPVPELAGAPSVFIFPPKPKDILLISQNAKVTCVVVDVSEEEPDVQFSWFVNNVEVHTAQTQPREEQYNSTFRVVSALPIQHQDWMSGKEFKCKVNNKALPSPIEKTISKPKGLVRKPQVYVMGPPTEQLTEQTVSLTCLTSGFLPNDIGVEWTSNGHIEKNYKNTEPVMDSDGSFFMYSKLNVERSRWDSRAPFVCSVVHEGLHNHHVEKSISRPPGK light: EIVLTQSPATLSLSPGERATLSCRASQSVSSYLAWYQQKPGQAPRLLIYDASNRATGIPARFSGSGSGTDFTLTISSLEPEDFAVYYCQQSDSWPPTFGGGTKVEIKRADAAPTVSIFPPSTEQLATGGASVVCLMNNFYPRDISVKWKIDGTERRDGVLDSVTDQDSKDSTYSMSSTLSLTKADYESHNLYTCEVVHKTSSSPVVKSFNRNEC |  | 8.7 |  | 9.1
